Assay results reported in patent US20190031771A1 (University of Pennsylvania, published 2019).

T1: human ADAMTS13 (human, UniProt Q76LX8 75-1427)
T1 sequence (looked up): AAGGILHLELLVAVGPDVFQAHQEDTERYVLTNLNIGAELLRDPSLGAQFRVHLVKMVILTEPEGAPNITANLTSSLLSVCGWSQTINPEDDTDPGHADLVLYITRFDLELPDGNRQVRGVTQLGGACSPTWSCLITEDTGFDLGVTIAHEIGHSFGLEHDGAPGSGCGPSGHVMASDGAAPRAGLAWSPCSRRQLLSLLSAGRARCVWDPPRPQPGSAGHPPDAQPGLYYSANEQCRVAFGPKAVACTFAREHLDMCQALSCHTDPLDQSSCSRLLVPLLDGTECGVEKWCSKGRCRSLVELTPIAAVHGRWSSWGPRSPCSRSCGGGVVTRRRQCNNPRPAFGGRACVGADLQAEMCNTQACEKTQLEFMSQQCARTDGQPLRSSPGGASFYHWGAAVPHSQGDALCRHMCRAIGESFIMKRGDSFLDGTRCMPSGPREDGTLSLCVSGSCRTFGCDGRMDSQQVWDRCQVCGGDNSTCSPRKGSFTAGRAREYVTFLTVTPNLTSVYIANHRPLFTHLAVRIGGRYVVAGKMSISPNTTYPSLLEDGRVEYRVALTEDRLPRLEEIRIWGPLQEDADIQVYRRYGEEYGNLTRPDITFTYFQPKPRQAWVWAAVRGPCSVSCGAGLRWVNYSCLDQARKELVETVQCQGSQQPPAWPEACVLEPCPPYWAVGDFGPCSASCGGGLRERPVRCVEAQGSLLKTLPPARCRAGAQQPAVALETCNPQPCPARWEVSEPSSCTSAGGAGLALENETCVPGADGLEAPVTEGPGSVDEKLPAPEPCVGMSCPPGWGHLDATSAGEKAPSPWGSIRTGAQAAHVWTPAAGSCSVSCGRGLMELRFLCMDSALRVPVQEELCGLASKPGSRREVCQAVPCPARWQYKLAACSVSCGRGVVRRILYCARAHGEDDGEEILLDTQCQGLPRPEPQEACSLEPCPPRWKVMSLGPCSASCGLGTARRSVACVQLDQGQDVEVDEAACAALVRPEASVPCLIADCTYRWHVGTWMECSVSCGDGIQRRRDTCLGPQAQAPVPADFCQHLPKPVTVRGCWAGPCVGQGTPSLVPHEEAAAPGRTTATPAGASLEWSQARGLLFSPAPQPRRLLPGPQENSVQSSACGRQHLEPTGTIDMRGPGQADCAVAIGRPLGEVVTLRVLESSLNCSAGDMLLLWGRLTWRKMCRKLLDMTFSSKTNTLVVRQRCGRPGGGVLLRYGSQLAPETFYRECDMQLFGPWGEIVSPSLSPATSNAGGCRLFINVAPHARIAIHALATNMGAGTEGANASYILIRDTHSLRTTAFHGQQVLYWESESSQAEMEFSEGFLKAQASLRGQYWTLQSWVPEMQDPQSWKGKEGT


Experiments:
human ADAMTS13 = target: T1, human ADAMTS13; assay: cell-based or functional assay
[1] = target: T2, hemagglutinin ectodomain of influenza virus H1/PR/8/34 (influenza virus H1/PR/8/34, UniProt P03452 18-528); assay: immunoassay or flow cytometry
T2 construct: extracellular domain; also called HA H1/PR/8/34
T2 sequence (P03452 18-528): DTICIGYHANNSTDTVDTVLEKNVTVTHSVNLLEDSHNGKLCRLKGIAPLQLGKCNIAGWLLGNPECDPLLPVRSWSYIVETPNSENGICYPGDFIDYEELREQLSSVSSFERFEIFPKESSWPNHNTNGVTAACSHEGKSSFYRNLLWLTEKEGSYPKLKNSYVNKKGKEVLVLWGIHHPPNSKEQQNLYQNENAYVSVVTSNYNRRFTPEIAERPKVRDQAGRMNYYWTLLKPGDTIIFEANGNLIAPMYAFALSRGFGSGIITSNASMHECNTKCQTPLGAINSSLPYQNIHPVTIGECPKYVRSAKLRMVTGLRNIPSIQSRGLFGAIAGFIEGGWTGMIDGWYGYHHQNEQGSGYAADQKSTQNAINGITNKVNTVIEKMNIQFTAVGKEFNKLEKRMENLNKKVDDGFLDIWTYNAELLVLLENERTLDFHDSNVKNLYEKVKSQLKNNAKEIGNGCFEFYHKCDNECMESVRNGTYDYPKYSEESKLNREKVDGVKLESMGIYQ

| Binder | % ADAMTS13 activity in presence of scFv inhibitor (no rabbit IgG) (human ADAMTS13) [%] | binding result [1] |
| --- | --- | --- |
| scFv 1-431 (scFv, V domains shown) VH: QVQLVQSGAEVKKFGSSVKVSCKASGGTFSSYTMSWVRQAPGQGLEWMGSFVPILERANYAQGFQGRVTFTADKSTSTAYMELGSLRSEDTAVYYCARDLGDFGDSWGQGTLVTVSS VL: ELELTQPPSVSVSPGQTARITCSGDALPKQYAYWYQQKPGQAPVLVIYKDSERPSGIPERFSGSSSGTTVTLTISGVQAEDEADYYCQSADSSGTYVFGGGTKLTVL | 19 | no binding |
| scFv 1-428 (scFv, V domains shown) VH: EVQLVQSGAEVKKPGSSVKVSCKASGSNFSSHTINWVRQAPGHGLEWMGKIIPVLDISKDAETFLGRVVITADKSTSTAYMELSSLRSEDTAIYYCAMDSVYGNFDFWGQGTLVTVSS VL: ELELTQPPSVSVSPGQTARITCSGDALPKQYAYWYQQKPGQAPVLVIYKDSERPSGIPERFSGSSSGTTVTLTISGVQAEDEADYYCQSADSSGTYEVFGGGTKLTVL | 7 | no binding |
